According to doi:10.1101/859678 (bioRxiv, 2019):

Target: the molecule itself
Assay: SEC

B1: Arabidopsis thaliana Golgi anti-apoptotic protein 3 (AtGAAP3) (natural protein, UniProt Q9ZQX7-1 1-248, looked up)
chain: MYQWNLPYRKDDVETGVSSRRPLLYPAMHENPELRWGFIRKVYSIIAFQLLATVAVAATVVTVRPIALFFATTGLGLALYIVIIITPLIVLCPLYYYHQKHPVNYLLLGIFTLALAFVVGLTCAFTNGKVILESVILTSVVVLSLTLYTFWAARKGYDFNFLGPFLFGALTVLIFFALIQILFPLGRVSVMIYGCLVSIIFCGYIVYDTDNLIKRHTYDEYIWAAVSLYLDIINLFLYLLTVLRALQR
- binding result: binds
